Entries after “also recorded” stand apart in the source; their conditions may differ.

The target in test [1] is T1, I-A^k (Mus musculus, UniProt P01910+P06343).
T1 construct: endogenous in cells
Description: Inhibition of binding of 125I-labeled Lysozyme (Hen) (P46-61) to I-A^k. The settings on record: for Competition with the lysozyme-derived peptide for binding to I-A^k (in words): up to 2500 μM. The text has this:
(§1) Ia-molecules were purifed from Nonidet P-40 (NP-40) lysates of A20 (H2^d) or AKTB-1b (H2^k) cells by affinity chromatography using the following monoclonal antibodies: MK-D6 (I-A^d -specific), 10-3-6 (I-A^k -specific) specific) or 14-4-4 (I-E^d/k -specific) coupled to Sepharose 4B beads (Pharmacia Fine Chemicals, Sweden).
(§2) A gel filtration assay was used for determining the degree of association between immunogenic peptides and Ia. The assay is described in: Buus, S. et al., Proceeding of the National Academy of Sciences, U.S.A. (1986) 83:3968, the teaching of which is incorporated herein by reference. Briefly, 40 μmole of purified Ia in 1 percent NP-40/PBS was mixed with 0.2 μmole of ^125 I-labeled peptide (approximately 200,000 cpm for each experiment) and incubated for 48 hours at room temperature to allow for formation of the Ia-peptide complex. The Ia-peptide complexes were separated from free peptide by gel filtration and the percentage of peptide bound to Ia was calculated as the ratio of the ^125 I-labeled peptide in the void volume to the total ^125 I-labeled peptide recovered.
For the inhibition assay a dose-range of unlabeled cI P12-26 peptide was added to the incubation mixture of Ia and ^125 I-labeled peptide ([…] μM). The degree of association between Ia and labeled peptide was determined by gel filtration as described in Table 1. The percentage of peptide bound in the absence of inhibitors is 10.6 percent for ovalbumin (323 to 339)/I-A^d; 6.5 percent for myoglobulin 132 to 153)/I-E^d; 21.5 percent for lysozyme (46 to 61)/I-A^k; 2.5 percent for cytochrome C (88 to 104)/I-E^k. The concentration of inhibitory peptide required to obtain a 50 percent inhibition of binding was calculated. Each experiment was repeated three times.

The test system of test [2] is T-cell hybridoma DO-11.10. The class given is cell-based.
Test [3] relates to lymph node-derived T-cells from P12-26 immune mice. Description: Standard lymph node proliferation assay (thymidine incorporation). The class given is cell-based. Particulars: cultured with 10 μM P12-26. The source says:
(§3) The proliferation of these same cultures was not inhibited (75,000 cpm) by a monoclonal antibody, 34-1-4S, which is specific for I-E^d and which inhibits the stimulation of a hemocyanin specific, I-E^d resticted T-cell hybridoma.
A general note: Uptake of a labelled nucleoside into DNA is a usual measure of proliferation.

For test [4], the system named is monoclonal antibody specific for (NANP)50. Description: Inhibition of binding of monoclonal antibody specific for (NANP)50 to (NANP)50. More on the design: species or system mice. The settings on record: radiolabelled (NANP)50 bound to microwells. The text has this:
The above study was repeated except the antigen was radiolabelled (NANP)50 which was bound to microwells.

Test [5] concerns the target T2, I-A^d (Mus musculus, UniProt P01921+P04228).
T2 construct: endogenous in cells
T2 sequence (P04228 24-256): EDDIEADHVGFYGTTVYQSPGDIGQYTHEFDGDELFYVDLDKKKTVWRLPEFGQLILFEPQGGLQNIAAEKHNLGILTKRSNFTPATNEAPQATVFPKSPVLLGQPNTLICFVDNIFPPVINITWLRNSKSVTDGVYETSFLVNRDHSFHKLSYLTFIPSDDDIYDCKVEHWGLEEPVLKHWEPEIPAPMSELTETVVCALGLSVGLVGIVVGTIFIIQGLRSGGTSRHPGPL
T2 sequence (P01921 28-265): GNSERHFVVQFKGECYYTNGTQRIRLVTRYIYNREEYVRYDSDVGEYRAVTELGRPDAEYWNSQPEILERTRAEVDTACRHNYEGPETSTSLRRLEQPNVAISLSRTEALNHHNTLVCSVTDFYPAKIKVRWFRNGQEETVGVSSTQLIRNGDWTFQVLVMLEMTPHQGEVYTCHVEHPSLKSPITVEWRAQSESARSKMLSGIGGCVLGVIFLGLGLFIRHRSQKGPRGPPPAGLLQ
Nature of the test: Gel filtration binding of 125I-labeled peptide to purified Ia (I-A^d).
Excerpt: (§4) The peptide P12-26 was modified by the addition of a tyrosine residue to the N-terminus to serve as an acceptor for the ^125 I.
as §1, §2
(In gel filtration, larger molecules generally elute earlier.)

Test [6] concerns monoclonal antibody B3.11. Description: Inhibition of monoclonal antibody B3.11 binding to BSA conjugated to P12-26. Particulars: BSA conjugated to P12-26 adsorbed to microwells; inhibitors listed in order of decreasing inhibition. The source says:
Antibody recognition of (NANP)3-12-26 by monoclonal antibodies was studied. The antigen, bovine serum albumin (BSA) conjugated to P12-26 was adsorbed to microwells and horseradish peroxidase (HRP) labeled antibody specific for P12-26 added. In the absence of (NANP)3-12-26 or in the presence of P12-26LF, there is no inhibition of monoclonal antibody B3.11 binding.

Test [7] has as its target T1, I-A^k. Description: Gel filtration binding of 125I-labeled peptide to purified Ia (I-A^k).
Excerpt: as §4, §1, §2

In test [8] the target is T3, I-E^k (Mus musculus, UniProt P04224+P04230).
T3 sequence (P04224 26-255): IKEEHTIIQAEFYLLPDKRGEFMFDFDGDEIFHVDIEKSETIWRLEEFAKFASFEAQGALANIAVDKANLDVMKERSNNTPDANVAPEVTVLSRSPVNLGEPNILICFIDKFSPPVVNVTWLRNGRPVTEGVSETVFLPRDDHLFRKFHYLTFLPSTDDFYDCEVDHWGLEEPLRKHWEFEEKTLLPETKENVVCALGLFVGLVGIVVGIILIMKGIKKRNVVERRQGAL
T3 sequence (P04230 27-264): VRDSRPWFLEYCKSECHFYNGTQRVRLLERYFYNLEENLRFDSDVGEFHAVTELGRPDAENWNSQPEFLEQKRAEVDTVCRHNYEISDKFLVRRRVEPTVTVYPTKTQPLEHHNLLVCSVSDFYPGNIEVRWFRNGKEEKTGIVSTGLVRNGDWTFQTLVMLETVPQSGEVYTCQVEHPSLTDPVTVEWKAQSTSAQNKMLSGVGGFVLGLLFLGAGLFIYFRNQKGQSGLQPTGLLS
Nature of the test: Inhibition of binding of 125I-labeled Cytochrome c (pigeon) (P88-104) to I-E^k. The settings on record: 125I Cytochrome c (pigeon) (P88-104) bound to I-E^k; read-out: Concentration (μM) of P12-26 Required for 50 percent Inhibition.
Excerpt: as §1
A gel filtration assay was used for determining the degree of association between immunogenic peptides and Ia. The assay is described in: Buus, S. et al., Proceeding of the National Academy of Sciences, U.S.A. (1986) 83:3968, the teaching of which is incorporated herein by reference. […] The Ia-peptide complexes were separated from free peptide by gel filtration and the percentage of peptide bound to Ia was calculated as the ratio of the ^125 I-labeled peptide in the void volume to the total ^125 I-labeled peptide recovered.
For the inhibition assay a dose-range of unlabeled cI P12-26 peptide was added to the incubation mixture of Ia and ^125 I-labeled peptide (600, 120, 24, ad 48 μM). The degree of association between Ia and labeled peptide was determined by gel filtration as described in Table 1. […] The concentration of inhibitory peptide required to obtain a 50 percent inhibition of binding was calculated. […]

The subject of test [9] is I-E^d. Nature of the test: Restriction of peptide-specific T-cell hybrids assayed on L cells expressing I-A^d or I-E^d. The format is cell-based, Balb/c mouse. The settings on record: P12-26: of more than 300 hybrids; myoglobin (P135-147): of 80 hybrids.
Excerpt: That is, they could be stimulated by antigen in the presence of L cells expressing I-A^d, but could not be shown to be stimulated by antigen in the presence of L cells expressing I-E^d.
as §3

Take “P12-26: derived from the cI protein of bacteriophage lambda (residues 12-26)”: the IC50 was greater than 2500 µM in test [1] (125I Lysozyme (Hen) (P46-61) bound to I-A^k, read-out: Concentration (μM) of P12-26 Required for 50 percent Inhibition) and 300 µM in test [8]. Besides, the “Competition with the lysozyme-derived peptide for binding to I-A^k (in words)” value in test [1] is on record as “is not observed”; in test [1] (listed as P1226), “No inhibition of binding was detected”. In addition, the “Stimulation of DO-11.10” value in [2] is reported as “Neither of these peptides can stimulate DO-11.10 on its own”. Besides, the “Inhibition of ovalbumin-specific T-cell activation (DO-11.10)” value in test [2] (Ova (P324-336) as stimulator, A20 presenting cells, peptide at 50 μM, 24 hrs) was “act as inhibitors”. In [3], the “Proliferation (thymidine incorporation)” value is recorded as 68,000 cpm. Further, the “Inhibition of binding of monoclonal antibody specific for (NANP)50” value in test [4] is given as “did not inhibit binding”. In test [5], the “Binding to the I-A^d molecule (in words)” value is given as “able to bind to both molecules as expected”. Moreover, the “Inhibition of monoclonal antibody B3.11 binding” value in [6] is given as “Inhibition is observed”. Moreover, the “Binding to the I-A^k molecule (in words)” value in [7] was “not bound; also recorded: inability of P12-26 to bind”. Moreover, in test [9], the “Number of peptide-specific hybrids restricted by I-E^d” value is listed as “none”.
